The results in this text go back to patent US20230051538A1.

In assay [1] the target is alpha-synuclein in Lewy Body Disease (LBD/DLB) brain (human) (UniProt P37840). Nature of the assay: dot blot signal on LBD brain extract over control brain extract.
In assay [2] the target is alpha-synuclein oligomers (UniProt P37840). Nature of the assay: SPR, antibody immobilized, kinetic fitting, 1:1 model. Background: Surface plasmon resonance follows binding to a sensor surface in real time, without labels.
The target in assay [3] is alpha-synuclein sonicated preformed fibrils (soluble fibrils) (human) (UniProt P37840). The assay is described as above.
Assay [4] addresses alpha-synuclein monomer (UniProt P37840). Description: SPR, antibody immobilized, steady state fitting.
The target of assay [5] is alpha-synuclein physiological tetramer (UniProt P37840). Nature of the assay: SPR, antibody immobilized, steady state fitting.

In assay [1], “pan-Alpha Syn Antibody (4D6) (Biolegend)” had a Fold of reactivity LBD vs. Control (LBD / Control) of 2.2 fold.
By Kd is commonly meant the equilibrium constant for the complex coming apart. A word on the koff: it is a measure of how fast the partners let go of each other. The term kon denotes the second-order rate constant of association. On to “NI-202.12F4 (Creative Biolabs) (antibody)”, for which the dissociation constant (Kd) amounted to 131 nM in assay [2], 12 nM in assay [3], 8600 nM in assay [4] and 14000 nM in assay [5]. Also, the koff came to 0.001 s⁻¹ in assay [2] and 3.75e-05 s⁻¹ in assay [3]. Also, the on-rate constant (kon) is 7640 M⁻¹ s⁻¹ in assay [2] and 3100 M⁻¹ s⁻¹ in assay [3].
For “Prasinezumab, Human IgG, PRX002/RG7935, Creative Biolabs (antibody)”, the Kd in assay [2] stood at 72 nM; in assay [3], 11 nM; in assay [4], 100 nM; in assay [5], 50 nM. The off-rate (koff) came out at 0.00181 s⁻¹ in assay [2] and 0.000209 s⁻¹ in assay [3]. Further, the results for the kon in assay [2] and in assay [3] were 25100 M⁻¹ s⁻¹ and 19500 M⁻¹ s⁻¹, respectively.
On to “Syn-F1 aggregation/fibril preferring antibody”, for which the Fold of reactivity LBD vs. Control (LBD / Control) in assay [1] came out at 3.8 fold.
